Biological target: gp41 of HIV-1/IIIB virions (virus stock, culture supernatant) (HIV-1 (isolate IIIB)) (UniProt P04578)
Test: SEC + ELISA

## gp120 of HIV-1/IIIB virions (virus stock, culture supernatant) (from UniProt P04578 33-511) (natural protein)
  percent of total gp120 virion bound (virus + sCD4): 24%
  percent of total gp120 virion bound (virus + sCD4 + thrombin): 18%
  percent of total gp120 virion bound (virus + thrombin + sCD4): 20%
  percent of total gp120 virion bound (virus + thrombin): 59%
  percent of total gp120 virion bound (virus alone): 57%
  percent of total gp120 virion-bound (virus stock): 55%
  reduction of virion bound gp120 after 10 h at 4C with sCD4: 10%

From PMC2118908
